Values of other authors in PMC10947324.

Legend:
Conditions in all cases: monomeric, unstructured Abeta
His13 = His13 (UniProt position 684, SGYEVHHQKLV)
His6 = His6 (UniProt position 677, DAEFRHDSGYE)
His14 = His14 (UniProt position 685, GYEVHHQKLVF)

**Q.** With “Amyloid-beta peptide (Abeta), monomeric (Homo sapiens (inferred; the article discusses the peptide of Alzheimer's disease patients))” as the substance, how does the pKa (His13) read?
**A.** 6.64

**Q.** What about the pKa (His6) of the same substance?
**A.** 6.67

**Q.** And the pKa (His14)?
**A.** 6.67
